{"source": "patent US7915393B2", "about": "(Corixa Corporation, priority 2001, dated 2011)", "molecules": {"B1": {"name": "WT1 DNA: naked DNA encoding the splice variant of WT1, SEQ ID NO:381 (nucleic acid)", "DNA": "ATGGGCTCCGACGTTCGTGACCTGAACGCACTGCTGCCGGCAGTTCCGTCCCTGGGTGGTGGTGGTGGTTGCGCACTGCCGGTTAGCGGTGCAGCACAGTGGGCTCCGGTTCTGGACTTCGCACCGCCGGGTGCATCCGCATACGGTTCCCTGGGTGGTCCGGCACCGCCGCCGGCACCGCCGCCGCCGCCGCCGCCGCCGCCGCACTCCTTCATCAAACAGGAACCGAGCTGGGGTGGTGCAGAACCGCACGAAGAACAGTGCCTGAGCGCATTCACCGTTCACTTCTCCGGCCAGTTCACTGGCACAGCCGGAGCCTGTCGCTACGGGCCCTTCGGTCCTCCTCCGCCCAGCCAGGCGTCATCCGGCCAGGCCAGGATGTTTCCTAACGCGCCCTACCTGCCCAGCTGCCTCGAGAGCCAGCCCGCTATTCGCAATCAGGGTTACAGCACGGTCACCTTCGACGGGACGCCCAGCTACGGTCACACGCCCTCGCACCATGCGGCGCAGTTCCCCAACCACTCATTCAAGCATGAGGATCCCATGGGCCAGCAGGGCTCGCTGGGTGAGCAGCAGTACTCGGTGCCGCCCCCGGTCTATGGCTGCCACACCCCCACCGACAGCTGCACCGGCAGCCAGGCTTTGCTGCTGAGGACGCCCTACAGCAGTGACAATTTATACCAAATGACATCCCAGCTTGAATGCATGACCTGGAATCAGATGAACTTAGGAGCCACCTTAAAGGGCCACAGCACAGGGTACGAGAGCGATAACCACACAACGCCCATCCTCTGCGGAGCCCAATACAGAATACACACGCACGGTGTCTTCAGAGGCATTCAGGATGTGCGACGTGTGCCTGGAGTAGCCCCGACTCTTGTACGGTCGGCATCTGAGACCAGTGAGAAACGCCCCTTCATGTGTGCTTACCCAGGCTGCAATAAGAGATATTTTAAGCTGTCCCACTTACAGATGCACAGCAGGAAGCACACTGGTGAGAAACCATACCAGTGTGACTTCAAGGACTGTGAACGAAGGTTTTTTCGTTCAGACCAGCTCAAAAGACACCAAAGGAGACATACAGGTGTGAAACCATTCCAGTGTAAAACTTGTCAGCGAAAGTTCTCCCGGTCCGACCACCTGAAGACCCACACCAGGACTCATACAGGTGAAAAGCCCTTCAGCTGTCGGTGGCCAAGTTGTCAGAAAAAGTTTGCCCGGTCAGATGAATTAGTCCGCCATCACAACATGCATCAGAGAAACATGACCAAACTCCAGCTGGCGCTTTGAG"}}, "system": "WT1-specific CTL targets (DC transduced with WT1 or pulsed with WT1 peptides)", "experiment": "CTL by chromium release after WT1 DNA or adenovirus/alphavirus immunization", "assay_type": "in vivo, C57/BI6 mice; HLA-A2/Kb transgenic mice", "settings": "C57/BI6 mice, 3 x 100 μg, 25:1 E:T ratio", "protocol": "Mice were sacrificed 2-3 weeks after the final immunization and CTL were evaluated by standard Chromium release assay.\nMice were sacrificed 2-3 weeks after the final immunization and CTL were evaluated by standard Chromium release assay. […] Thus, this immunization strategy also effectively elicits WT1-specific CTL in vivo."}
{"molecule": "B1", "values": [{"measurement": "lysis (WT1-specific cytotoxic T cell response)", "value": 40, "unit": "%"}]}
